For assay [1], the target named is hemagglutinin (HA) of influenza A/Wisconsin/67/05 (H3N2) (influenza A virus). Nature of the assay: cell-based or functional assay.
Assay [2] has as its target hemagglutinin (HA) of influenza B/Brisbane/60/08 (Victoria) (influenza B virus). The assay is described as follows: cell-based or functional assay.
Assay [3] deals with hemagglutinin (HA) of influenza B/Florida/04/06 (Yamagata) (influenza B virus). Nature of the assay: cell-based or functional assay.
The target of assay [4] is HA of H1N1 A/Brisbane/59/07 (influenza A virus). Nature of the assay: BLI steady state.
The target of assay [5] is HA of H1N1 A/New Caledonia/20/1999 (influenza A virus). Nature of the assay: BLI steady state.
The target in assay [6] is HA of H3N2 A/Brisbane/10/2007 (influenza A virus). The assay is described as follows: BLI steady state.
Assay [7] has as its target HA of H3N2 A/Wisconsin/67/2005 (influenza A virus). The assay is described as follows: BLI steady state.
The target in assay [8] is HA of H7N3 A/NIBRG/60 (A/mallard/NL/12/00) (influenza A virus). Nature of the assay: BLI steady state.
Assay [9] deals with HA of H7N9 A/Hangzhou/1/2013 (influenza A virus). The assay is described as follows: BLI steady state.
Assay [10] concerns the target HA of B/Brisbane/60/2008 (Victoria) (influenza B virus). The assay is described as follows: cell-based or functional assay.
Assay [11] concerns the target HA of B/Florida/04/2006 (Yamagata) (influenza B virus). The assay is described as follows: cell-based or functional assay.
For assay [12], the target named is HA of H1N1 A/Brisbane/59/07 (influenza A virus). The assay is described as follows: cell-based or functional assay.
The target of assay [13] is HA of H1N1 A/New Caledonia/20/1999 (influenza A virus). The assay is described as follows: cell-based or functional assay.
The target of assay [14] is HA of H3N2 A/Brisbane/10/2007 (influenza A virus). The assay is described as follows: cell-based or functional assay.
The target in assay [15] is HA of H3N2 A/Wisconsin/67/2005 (influenza A virus). Nature of the assay: cell-based or functional assay.
The target of assay [16] is HA of H5N1 A/Vietnam/1194/04 (influenza A virus). The assay is described as follows: cell-based or functional assay.
In assay [17] the target is HA of H7N3 A/NIBRG/60 (A/mallard/NL/12/00) (influenza A virus). The assay is described as follows: cell-based or functional assay.
Assay [18] addresses hemagglutinin (HA) of influenza A/Brisbane/10/07 (H3N2) (influenza A virus A/Brisbane/10/07 (H3N2)). Nature of the assay: cell-based or functional assay.
Assay [19] concerns the target hemagglutinin (HA) of influenza A/New York/107/03 (PR8) (influenza A virus A/New York/107/03 (PR8)). The assay is described as follows: cell-based or functional assay.
The target in assay [20] is hemagglutinin (HA) of influenza A/chicken/Germany/n/49 (H10N7) (influenza A virus A/chicken/Germany/n/49 (H10N7)). Nature of the assay: cell-based or functional assay.
The target of assay [21] is hemagglutinin (HA) of influenza A/waterfowl/Hong Kong/MPA892/06 (H4) (influenza A virus A/waterfowl/Hong Kong/MPA892/06 (H4)). The assay is described as follows: cell-based or functional assay.
The target of assay [22] is hemagglutinin (HA) of influenza virus H1N1 A/California/07/09 (influenza A virus). Nature of the assay: cell-based or functional assay.
Assay [23] has as its target hemagglutinin (HA) of influenza virus H1N1 A/Puerto Rico/8/34-MA (influenza A virus). The assay is described as follows: cell-based or functional assay.
Assay [24] deals with hemagglutinin (HA) of influenza virus H3N2 A/Wisconsin/67/05 (influenza A virus). Nature of the assay: cell-based or functional assay.
Assay [25] addresses hemagglutinin (HA) of influenza virus H5N1 A/Vietnam/1194/04 (influenza A virus). The assay is described as follows: cell-based or functional assay.
The target in assay [26] is HA of H3N2 A/Brisbane/10/2007 (influenza A virus). The assay is described as follows: AlphaLISA competition vs 39.29. Background: Bead proximity is the source of the signal in Alpha formats.
For assay [27] the target is unchanged. The assay is described as follows: AlphaLISA competition vs CR8020.
In assay [28] the target is HA of H3N2 A/Wisconsin/67/2005 (influenza A virus). Nature of the assay: AlphaLISA competition vs CR8020.
The target of assay [29] is HA of H3N2 A/Brisbane/10/2007 (influenza A virus). The assay is described as follows: AlphaLISA competition vs CR8057.
Assay [30] deals with HA of H3N2 A/Wisconsin/67/2005 (influenza A virus). Nature of the assay: AlphaLISA competition vs CR8057.
The target in assay [31] is HA of B/Brisbane/60/2008 (Victoria) (influenza B virus). The assay is described as follows: AlphaLISA competition vs CR9114.
Assay [32] addresses HA of H1N1 A/New Caledonia/20/1999 (influenza A virus). The assay is described as follows: AlphaLISA competition vs CR9114.
Assay [33] deals with HA of H3N2 A/Brisbane/10/2007 (influenza A virus). Nature of the assay: AlphaLISA competition vs CR9114.
Assay [34] has as its target HA of H3N2 A/Wisconsin/67/2005 (influenza A virus). Nature of the assay: AlphaLISA competition vs CR9114.
Assay [35] concerns the target HA of H5N1 A/Vietnam/1203/2004 (influenza A virus). The assay is described as follows: AlphaLISA competition vs CR9114.
Assay [36] has as its target HA of H3N2 A/Brisbane/10/2007 (influenza A virus). The assay is described as follows: AlphaLISA competition vs SD1036.
Assay [37] has the same target. The assay is described as follows: AlphaLISA competition vs SD1038.
The target in assay [38] is HA of B/Brisbane/60/2008 (Victoria) (influenza B virus). Nature of the assay: AlphaLISA competition vs SD1083.
The target in assay [39] is HA of B/Florida/04/2006 (Yamagata) (influenza B virus). The assay is described as follows: AlphaLISA competition vs SD1083.
Assay [40] deals with HA of B/Brisbane/60/2008 (Victoria) (influenza B virus). The assay is described as follows: AlphaLISA competition vs SD1084.
For assay [41], the target named is HA of B/Florida/04/2006 (Yamagata) (influenza B virus). The assay is described as follows: AlphaLISA competition vs SD1084.
In assay [42] the target is HA of B/Brisbane/60/2008 (Victoria) (influenza B virus). The assay is described as follows: AlphaLISA competition vs SD1085.
Assay [43] has as its target HA of B/Florida/04/2006 (Yamagata) (influenza B virus). The assay is described as follows: AlphaLISA competition vs SD1085.
For assay [44], the target named is HA of B/Brisbane/60/2008 (Victoria) (influenza B virus). The assay is described as follows: AlphaLISA competition vs SD1086.
The target in assay [45] is HA of B/Florida/04/2006 (Yamagata) (influenza B virus). The assay is described as follows: AlphaLISA competition vs SD1086.
Assay [46] deals with HA of B/Brisbane/60/2008 (Victoria) (influenza B virus). The assay is described as follows: AlphaLISA competition vs SD1087.
Assay [47] has as its target HA of B/Florida/04/2006 (Yamagata) (influenza B virus). Nature of the assay: AlphaLISA competition vs SD1087.

A value given as a limit tells only on which side of the number the result lay.

The Kd is the free concentration of one partner at which half of the binding sites on the other are occupied at equilibrium, for simple one-to-one binding. Low readings indicate higher affinity, high ones lower affinity. The term pIC50 denotes −log10 of the IC50, conventionally taken in molar units. A lower pIC50 goes with a high IC50.

Chain of SD1036 (VHH) (VHH): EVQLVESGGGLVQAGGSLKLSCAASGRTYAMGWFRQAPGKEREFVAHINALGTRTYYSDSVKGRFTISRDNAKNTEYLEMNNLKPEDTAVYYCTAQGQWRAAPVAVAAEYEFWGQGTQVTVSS

Consider CR9114 (antibody), for which the ADCC induction (EC50 grade, FcγRIIIa reporter bioassay) in assay [1], in assay [2] and in assay [3] was under 0.1 µg/mL each time.
For CR9114-LALA (antibody), the ADCC induction (EC50 grade, FcγRIIIa reporter bioassay) in [1], in assay [2] and in assay [3] was over 0.5 µg/mL throughout.
Consider SD1036 (VHH), for which the Kd was 0.29 µM in [4]; 0.23 µM in assay [5]; 0.01 µM in assay [6]; 0.122 µM in assay [7]; 0.002 µM in assay [8]; 0.003 µM in assay [9]. The VNA titer in assay [10] was over 1000 nM; in assay [11], over 1000 nM; in assay [12], over 1000 nM; in [13], over 1000 nM; in assay [14], 86.7 nM; in assay [15], over 1000 nM. The VNA titer is over 1000 nM in assay [16] and 10.9 nM in [17]. In addition, the VNA IC50 in [18] came to 0.059 µM; in assay [19], 0.011 µM; in assay [20] it was 0.01 µM; in [21], 0.044 µM. Besides, the neutralization titer in assay [22], in assay [23], in [24] and in assay [25] was under 1000 nM each time. Also, the pIC50 in assay [26] is 9.2; in assay [27] it was 9.2; in assay [28], 7.2; in [29] it was under 7; in assay [30], under 7; in assay [31] it was under 7. Further, the pIC50 in assay [32] is under 7; in assay [33] it was 9.4; in assay [34], 7.8; in assay [35] it was under 7; in assay [36], 9.1; in assay [37], 9.3. Also, the pIC50 in [38], in [39], in [40], in assay [41], in assay [42] and in [43] was under 7 in each case. For the same substance, the pIC50 in assay [44], in assay [45], in assay [46] and in assay [47] was under 7 each time.

These data come from patent US20190359693A1.
